From FireProtDB (doi:10.1021/bi9621829)

B1: Lysozyme C, P61626 (parent)
chain: MKALIVLGLVLLSVTVQGKVFERCELARTLKRLGMDGYRGISLANWMCLAKWESGYNTRATNYNAGDRSTDYGIFQINSRYWCNDGKTPGAVNACHLSCSALLQDNIADAVACAKRVVRDPQGIRAWVAWRNRCQNRDVRQYVQGCGV

Variants of: B1
Settings: Homo sapiens, pH 2.7, Thermal, DSC, glycine 0.05 M, reversible: yes, structure 1LZ1, whole UniProt chain shown

Variant	ddG of mutation (higher = less stable) (64.9 °C)	heat capacity change of unfolding (64.9 °C)	Tm	change of melting temperature, mutant - wild type (higher = more stable)	heat capacity change of unfolding	unfolding enthalpy (calorimetric)	unfolding enthalpy (van 't Hoff)
MKALIVLGLVLLSVTVQGKVFERCELARTLKRLGMDGYRGISLANWMCLAKWESGYNTRATNYNAGDRSTDYGIFQINSRYWCNDGKTPGAVNACHLSCSALLQDNIADAVACAKRAVRDPQGIRAWVAWRNRCQNRDVRQYVQGCGV [V117A]	4.1 kJ/mol	1.58 kcal/mol/K	61.9 °C	-3 °C	1.58 kcal/mol/K	464 kJ/mol	488 kJ/mol
MKALIVLGLVLLSVTVQGKVFERCELARTLKRLGMDGYRGISLANWMCLAKWESGYNTRATNYNAGDRSTDYGIFQINSRYWCNDGKTPGAANACHLSCSALLQDNIADAVACAKRVVRDPQGIRAWVAWRNRCQNRDVRQYVQGCGV [V92A]	1.51 kJ/mol	1.48 kcal/mol/K	63.8 °C	-1.1 °C	1.48 kcal/mol/K	477 kJ/mol	501 kJ/mol
MKALIVLGLVLLSVTVQGKVFERCELARTLKRLGMDGYRGISLANWMCLAKWESGYNTRATNYNAGDRSTDYGIFQINSRYWCNDGKTPGAVNACHLSCSALLQDNIADAVACAKRVVRDPQGIRAWVAWRNRCQNRDVRQYAQGCGV [V143A]	5.52 kJ/mol	1.29 kcal/mol/K	60.9 °C	-4 °C	1.29 kcal/mol/K	472 kJ/mol	487 kJ/mol
MKALIVLGLVLLSVTVQGKVFERCELARTLKRLGMDGYRGISLANWMCLAKWESGYNTRATNYNAGDRSTDYGIFQINSRYWCNDGKTPGAVNACHLSCSALLQDNIADAVACAKRVARDPQGIRAWVAWRNRCQNRDVRQYVQGCGV [V118A]	1.09 kJ/mol	1 kcal/mol/K	64.1 °C	-0.8 °C	1 kcal/mol/K	461 kJ/mol	502 kJ/mol
MKALIVLGLVLLSVTVQGKAFERCELARTLKRLGMDGYRGISLANWMCLAKWESGYNTRATNYNAGDRSTDYGIFQINSRYWCNDGKTPGAVNACHLSCSALLQDNIADAVACAKRVVRDPQGIRAWVAWRNRCQNRDVRQYVQGCGV [V20A]	6.32 kJ/mol	1.56 kcal/mol/K	60.3 °C	-4.6 °C	1.56 kcal/mol/K	468 kJ/mol	478 kJ/mol
MKALIVLGLVLLSVTVQGKVFERCELARTLKRLGMDGYRGISLANWMCLAKWESGYNTRATNYNAGDRSTDYGIFQINSRYWCNDGKTPGAVNACHLSCSALLQDNIADAVACAKRVVRDPQGIRAWVAWRNRCQNRDARQYVQGCGV [V139A]	6.02 kJ/mol	1.53 kcal/mol/K	60.4 °C	-4.5 °C	1.53 kcal/mol/K	460 kJ/mol	470 kJ/mol
MKALIVLGLVLLSVTVQGKVFERCELARTLKRLGMDGYRGISLANWMCLAKWESGYNTRATNYNAGDRSTDYGIFQINSRYWCNDGKTPGAVNACHLSCSALLQDNIADAVACAKRVVRDPQGIRAWVAWRNRCQNRDVRQYVQGCGA [V148A]	3.51 kJ/mol	1.51 kcal/mol/K	62.3 °C	-2.6 °C	1.51 kcal/mol/K	464 kJ/mol	500 kJ/mol
MKALIVLGLVLLSVTVQGKVFERCELARTLKRLGMDGYRGISLANWMCLAKWESGYNTRATNYNAGDRSTDYGIFQINSRYWCNDGKTPGAVNACHLSCSALLQDNIADAVACAKRVVRDPQGIRAWAAWRNRCQNRDVRQYVQGCGV [V128A]	-2.22 kJ/mol	1.24 kcal/mol/K	66.4 °C	1.5 °C	1.24 kcal/mol/K	485 kJ/mol	510 kJ/mol
MKALIVLGLVLLSVTVQGKVFERCELARTLKRLGMDGYRGISLANWMCLAKWESGYNTRATNYNAGDRSTDYGIFQINSRYWCNDGKTPGAVNACHLSCSALLQDNIADAAACAKRVVRDPQGIRAWVAWRNRCQNRDVRQYVQGCGV [V111A]			62.6 °C	-2.3 °C	1.53 kcal/mol/K	467 kJ/mol	501 kJ/mol
